US7005258
Each block holds one substance with its values, some of them ahead of it.

Key:
[1] = target: Xenopus cdc2 (34 kD) (Xenopus laevis) (UniProt P24033); test: co-immunoprecipitation, quantified immunoblots, metaphase eggs
[2] = target: Xenopus cyclin B2 (Xenopus laevis) (UniProt P13351); test: co-immunoprecipitation, quantified immunoblots
[3] = target: Xenopus cdc2 (34 kD) (Xenopus laevis) (UniProt P24033); test: co-immunoprecipitation with anti-cdc25 antibody against p13-Sepharose precipitate as total, quantified immunoblot
[4] = target: Xenopus cyclin B2 (Xenopus laevis) (UniProt P13351); test: as above
[5] = target: Xenopus cdc2 from prophase oocytes, tyrosine phosphorylated (UniProt P24033)
Sequence of Xenopus cdc2 from prophase oocytes, tyrosine phosphorylated (P24033 whole entry): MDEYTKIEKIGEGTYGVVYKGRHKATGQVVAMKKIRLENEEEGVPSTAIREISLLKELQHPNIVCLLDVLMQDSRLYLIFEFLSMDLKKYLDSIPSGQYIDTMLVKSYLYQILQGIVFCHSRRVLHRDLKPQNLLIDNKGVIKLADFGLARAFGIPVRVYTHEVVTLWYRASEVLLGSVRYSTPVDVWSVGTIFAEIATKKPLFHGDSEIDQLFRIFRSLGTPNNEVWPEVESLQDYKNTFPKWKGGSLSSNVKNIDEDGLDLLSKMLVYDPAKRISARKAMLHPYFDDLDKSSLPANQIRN

[6] = target: Xenopus cdc2 (34 kD) (UniProt P24033)
Sequence of Xenopus cdc2 (34 kD) (P24033 whole entry): as above

[7] = target: Xenopus cdc2/cyclin B complex (UniProt P24033)
Sequence of Xenopus cdc2/cyclin B complex (P24033 whole entry, chain 1 of 2, the tested form may be a part): as the sequence (P24033 whole entry) above
Sequence of Xenopus cdc2/cyclin B complex (chain, as listed by the source, chain 2 of 2): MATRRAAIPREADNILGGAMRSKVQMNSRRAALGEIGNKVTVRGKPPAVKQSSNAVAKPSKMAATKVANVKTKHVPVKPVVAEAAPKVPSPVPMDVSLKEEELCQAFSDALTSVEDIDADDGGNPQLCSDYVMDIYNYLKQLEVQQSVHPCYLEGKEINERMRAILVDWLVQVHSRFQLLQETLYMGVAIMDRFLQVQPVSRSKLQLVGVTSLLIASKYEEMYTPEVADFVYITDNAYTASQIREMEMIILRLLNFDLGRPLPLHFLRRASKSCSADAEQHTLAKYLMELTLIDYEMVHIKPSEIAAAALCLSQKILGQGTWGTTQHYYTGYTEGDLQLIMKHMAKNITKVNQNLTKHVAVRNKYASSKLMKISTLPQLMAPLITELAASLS

[8] = target: GST-cdc25 A fusion protein (glutathione-S-transferase / human cdc25 A) (human) [GST: P08515]; test: cell-based or functional assay
[9] = test system: starfish p34^cdc2, tyrosine-phosphorylated, from G2-arrested oocytes

Sequence of Xenopus cdc2 (34 kD) (Xenopus laevis) (P24033 whole entry): as the sequence (P24033 whole entry) above
Sequence of Xenopus cdc25 protein (p72) (Q13972 whole entry): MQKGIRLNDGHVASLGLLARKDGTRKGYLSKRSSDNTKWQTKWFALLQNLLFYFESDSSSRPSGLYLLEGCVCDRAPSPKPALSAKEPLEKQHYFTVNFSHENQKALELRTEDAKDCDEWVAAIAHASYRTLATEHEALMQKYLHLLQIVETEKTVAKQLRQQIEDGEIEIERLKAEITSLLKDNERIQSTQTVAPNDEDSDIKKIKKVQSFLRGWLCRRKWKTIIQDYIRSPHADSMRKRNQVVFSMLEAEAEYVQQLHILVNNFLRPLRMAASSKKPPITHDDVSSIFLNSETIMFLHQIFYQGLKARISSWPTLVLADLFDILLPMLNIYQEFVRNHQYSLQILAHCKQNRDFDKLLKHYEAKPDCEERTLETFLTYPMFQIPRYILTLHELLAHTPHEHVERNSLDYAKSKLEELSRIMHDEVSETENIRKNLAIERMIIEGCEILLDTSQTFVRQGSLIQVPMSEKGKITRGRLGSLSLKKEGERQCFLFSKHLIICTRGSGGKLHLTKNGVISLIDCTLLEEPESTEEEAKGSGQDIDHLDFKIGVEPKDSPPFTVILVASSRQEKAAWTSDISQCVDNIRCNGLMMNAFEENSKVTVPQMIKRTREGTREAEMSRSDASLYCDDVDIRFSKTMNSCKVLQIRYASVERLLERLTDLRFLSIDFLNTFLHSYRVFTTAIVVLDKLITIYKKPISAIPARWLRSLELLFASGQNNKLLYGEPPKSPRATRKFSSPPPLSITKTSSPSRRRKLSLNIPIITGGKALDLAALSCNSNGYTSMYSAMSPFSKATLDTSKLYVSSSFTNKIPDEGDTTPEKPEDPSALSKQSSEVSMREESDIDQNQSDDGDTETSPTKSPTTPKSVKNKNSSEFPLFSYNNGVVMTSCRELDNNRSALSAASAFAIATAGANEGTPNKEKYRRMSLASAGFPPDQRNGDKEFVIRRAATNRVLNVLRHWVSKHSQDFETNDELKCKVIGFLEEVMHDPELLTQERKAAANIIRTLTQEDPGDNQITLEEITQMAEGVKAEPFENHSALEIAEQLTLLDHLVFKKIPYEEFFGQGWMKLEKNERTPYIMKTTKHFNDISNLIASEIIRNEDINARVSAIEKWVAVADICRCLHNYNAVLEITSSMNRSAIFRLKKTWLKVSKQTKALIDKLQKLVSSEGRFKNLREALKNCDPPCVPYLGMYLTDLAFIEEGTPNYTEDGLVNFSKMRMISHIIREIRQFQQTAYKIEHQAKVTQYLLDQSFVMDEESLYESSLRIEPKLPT
Sequence of Xenopus cyclin B2 (Xenopus laevis) (P13351 whole entry): as the sequence (chain, as listed by the source, chain 2 of 2) above

Substance: Xenopus cdc25 protein (p72)
- histone H1 kinase activity of inactive prophase p13-bound cdc2 [5]: Both prophase and metaphase cdc25 stimulated histone H1 kinase activity 12-fold
- histone H1 kinase activity in anti-cdc25 immunoprecipitates [6]: Histone H1 kinase activity was detected in anti-cdc25 immunoprecipitates from metaphase eggs
- histone H1 kinase activity of cdc2 that is inactive in the absence of cyclin (eggs activated in the presence of cycloheximide) [6]: In neither case did p72 have any effect on the histone H1 kinase activity of cdc2
- relative metaphase kinase activity in p13-Sepharose precipitates and anti-cdc25 immunoprecipitates [6]: approximately 20-fold different
- histone H1 kinase activity of fully activated cdc2/cyclin from metaphase unfertilized eggs [7]: In neither case did p72 have any effect on the histone H1 kinase activity of cdc2

Substance: human cyclin B1 expressed as fusion protein with GST (from UniProt P14635 1-433)
- amount of cyclin B1 at which activation of cdc25 A (10 pmoles) plateaus, RCML phosphatase assay [8]: 10 pmol
- phosphatase activity of cdc25 A in the presence of p13 [8]: 8 fold
- tyrosine phosphatase activity of cdc25 A against 32P-labelled RCML [8]: 4 fold

Substance: GST-cdc25 A fusion protein (glutathione-S-transferase / human cdc25 A)
- tyrosine dephosphorylation of p34^cdc2 [9]: Treatment with purified GST-cdc25A protein induced almost complete tyrosine dephosphorylation of p34^cdc2

Next, values leading:

- percent of the cellular content of cdc25 present in anti-cdc2 immunoprecipitates [1]: 20%
- percent of the total cellular cdc2 present in anti-cdc25 immunoprecipitates [1]: 5%
- percent of the full cellular content of cdc25 present in anti-cyclin B2 immunoprecipitates [2]: 20%
- percent of the total population of cyclin B2 associated with cdc25 [2]: 17%
- fold, cdc2 in p13-Sepharose precipitate over cdc2 in anti-cdc25 immunoprecipitate [3]: 20 fold
- fold, cyclin B2 in p13-Sepharose precipitates over cyclin B2 in anti-cdc25 immunoprecipitate [4]: 6 fold
Substance: Xenopus cdc25 protein (p72) (from UniProt Q13972) (enzyme)

- tyrosine phosphatase activity of cdc25 A against 32P-labelled RCML [8]: 4 fold
Substance: human cyclin B2 expressed as fusion protein with GST (from UniProt O95067 1-398)
